The record followed here is patent publication US20090291081A1 (published 2009).

One assay addresses T1, human IL-1α (human, UniProt P01583 113-271).
T1 chain: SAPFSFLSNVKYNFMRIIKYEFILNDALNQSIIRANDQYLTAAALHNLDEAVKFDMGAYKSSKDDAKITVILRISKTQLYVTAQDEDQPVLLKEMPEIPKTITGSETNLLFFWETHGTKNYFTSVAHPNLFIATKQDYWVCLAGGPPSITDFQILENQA
As to the kind of experiment: yeast surface display titration (FACS); unlabelled IL-1α.

For a further assay, the target named is Bio-IL-1a. In words: yeast surface display titration (FACS); biotinylated IL-1α.

B1: ABT2-108-538x/ABT1-95-15 scFv on yeast surface (scFv, V domains shown)
VH: EVQLLESGGGLVQPGGSLRLSCAASGFTFADEGMMWVRQAPGKGLEWVSRITYSGKNTYYADSVKGRFTISRDNSKNTLYLQMNSLRAEDTAVYYCAKYTGRILGHHLFDYWGQGTLVTVSS
VL: DIQMTQSPSSLSASVGDRVTITCRASQPIVRNLRWYQQKPGKAPKLLIYSSSYLEPGVPSRFSGSGSGTDFTLTISSLQPEDFATYHCQQGYRWPVTFGQGTKVEIK
Usually EC50 stands for the midpoint of the concentration-response curve. Consider B1, for which the EC50 with human IL-1α stood at 0.664 nM.

B2: ABT2-108-538x/ABT1-95-15 scFv (scFv, V domains shown)
VH: EVQLLESGGGLVQPGGSLRLSCAASGFTFADEGMMWVRQAPGKGLEWVSRITYSGKNTYYADSVKGRFTISRDNSKNTLYLQMNSLRAEDTAVYYCAKYTGRILGHHLFDYWGQGTLVTVSS
VL: DIQMTQSPSSLSASVGDRVTITCRASQPIVRNLRWYQQKPGKAPKLLIYSSSYLEPGVPSRFSGSGSGTDFTLTISSLQPEDFATYHCQQGYRWPVTFGQGTKVEIK
As to B2, the response with Bio-IL-1a was half-maximal at 0.664 nM (EC50).
